In assay [1] the target is VARITECT (human polyclonal antibodies directed against Varicella Zoster antigens). The assay is described as follows: inhibition ELISA with VARITECT; gE content by ELISA divided by Lowry protein; gE before lyophilisation. (In general: An ELISA detects its analyte on a solid surface through an enzyme-linked reagent.)
Assay [2] has the same target. The assay is described as follows: inhibition ELISA with VARITECT; gE content by ELISA divided by Lowry protein; control VZV gE vaccine.
Assay [3] shares this target. The assay is described as follows: inhibition ELISA with VARITECT; gE content by ELISA divided by Lowry protein; lyophilised gE.
For assay [4] the target is unchanged. The experiment in a line: inhibition ELISA with VARITECT; gE content by ELISA divided by Lowry protein; sample gE/AS01 before lyophilisation.
For assay [5] the target is unchanged. The assay is described as follows: inhibition ELISA with VARITECT; gE content by ELISA divided by Lowry protein; co-lyophilised gE/AS01.
Assay [6] has the same target. The experiment in a line: inhibition ELISA with VARITECT; gE content divided by titer of the standard; lyophilised gE.
Assay [7] shares this target. The experiment in a line: inhibition ELISA with VARITECT; gE content divided by titer of the standard; co-lyophilised gE/AS01.
Assay [8] has the same target. The experiment in a line: inhibition ELISA with VARITECT; gE content divided by titer of the standard; control VZV gE vaccine.

In the case of “VZV gE antigen (truncated form of the Varicella Zoster Virus glycoprotein E) (from UniProt P09259 31-546)”, the Antigenic activity (gE/prot) worked out at 1.05 in assay [1]; 1.15 in assay [2]; 1.01 in assay [3]; 0.96 in assay [4]; 0.99 in assay [5]. Besides, the Potency came out at 0.98 in assay [6], 1.02 in assay [7] and 0.92 in assay [8].

The values above are taken from patent US20200188499A1.
